Patent US20220105157A1, “Compositions and Methods for Promoting Angiogenesis in the Eye” (The Regents of the University of California, priority 2019, published 2022)

Tests used:
[1] = tested on: choroid capillaries of NaIO3-treated mice; test: Sodium iodate (NaIO3) model, choroid capillary recovery; format: in vivo, mouse; details: NaIO3 20 mg/kg i.v.; intravitreal LIF 50 ng, CT-1 different doses, OSM 10 ng; OCT-A
Procedure: Eight-week-old C57BL/6J mice were anesthetized with ketamine/xylazine cocktail. Sterilized NaIO3 was administered as a single intravenous injection (20 mg/kg body weight) (28) (29). Control mice were injected with PBS. PBS, LIF (50 ng), CT-1 (different doses) or OSM (10 ng) was injected intravitreally in five-mice groups. Five, seven and nine days after injection, choroid capillaries were monitored by OCT-A system. 9 days after injection, mice were killed and eyes were harvested for H&E and immunofluorescent staining. Avascular area in choroid capillaries was analyzed using ImageJ.

[2] = tested on: retinal vasculature of mouse eyes; test: Intravitreal injection of recombinant proteins in mouse eyes, retinal vessel density; format: in vivo; details: mice, intravitreal
Procedure: Male C57BL/6J mice (6-8 week and P5) were anesthetized with ketamine/Xylazine cocktail. The indicated amounts of recombinant LIF (Sigma, CAT #SRP9001) in 1 μl of PBS and PBS vehicle control were injected intravitreally with a 33-gauge Hamilton syringe. Seven (for adult mice) or 3 (for neonatal mice) days after injection, animals were euthanized, eyes were then enucleated and fixed in 4% paraformaldehyde (PFA) for 15 min. Choroid-sclera complexes and retinas were separated and anti-CD31 immunofluorescence (IF) or lectin labeling was performed to evidence the vasculature by whole mount staining of both retina and choroidal tissues or flat-mounts of retina. For CD31 IF, rat anti-mouse antibody (BD Biosciences, CAT #550274) was diluted 1:100 and incubated overnight at 4° C. After 4-hour incubation with the Alexa Fluor-488-conjugated anti-rat antibody (Life Technologies, CAT #A11006), whole mounts were imaged via the 488 nm channel using Keyence Microscope BZ-X710 (Keyence Corporation, Osaka, Japan) or A1R Confocal STORM super-resolution system (Nikon). For lectin staining, Dylight-488-labeled lectin (Vector Laboratories, CAT #DL-1174) was diluted at 1:200 and images were obtained using A1R Confocal STORM super-resolution system (Nikon). For Quantification of vascular density in choroids and retina was carried out by Image J. Student's t test was used for statistical analysis. […]
Optical coherence tomography angiography (OCTA) imaging of the retina of adult mice was performed 7 days after LIF injection, using a 1300 nm optical coherence tomography (OCT) system developed by Dr. R. K. Wang's group at University of Washington Seattle, in agreement with previously described methodology (66). […] To quantify the retinal vascular density, retinal and choroidal layers in 3D structure OCT scans were separated by the hyper-reflecting retinal pigment epithelium (RPE). […] The vessel density was then determined by calculating the percentages of vessel-covered area in total area of view using the ImageJ software.

[3] = tested on: bovine choroidal endothelial (BCE) cells; test: BCE endothelial cell proliferation assay (alamar blue); format: cell-based; set-up: key to BCE cell growth normalized to the vehicle control group: ns, not statistically significant; details: for BCE cell growth normalized to the vehicle control group: day 6, n = 3
Procedure: The bovine endothelial proliferation assays were performed essentially as previously described (63, 64). BCE (1×10^3 cells/well) or BRE (5×10^2 cells/well) cells were seeded in 96-well plates in the culture medium (DMEM-low glucose supplemented with 10% BCS, 2 mM glutamine and antibiotics) plus testing materials with a total volume of 200 μl per well. BAE cells were plated in 96-well plates at a density of 2×10^3 cells in the culture medium (DMEM-low glucose supplemented with 1% BCS and antibiotics) plus testing material with a total volume of 200 μl per well. HRME cells were seeded at a density of 1×10^3 cells/well in gelatin-coated 96-well plates in assay medium (DMEM-low glucose supplemented with 20% FBS and antibiotics) plus testing materials to make a total volume 200 μl per well. For assays involving antibodies or small-molecule inhibitors, inhibitors or vehicle controls were first added and then test materials were added one hour later. After 6 days (unless otherwise specified), cells were incubated with alamar blue for 4 h. Fluorescence was measured at 530 nm excitation wavelength and 590 nm emission wavelength. Each experiment was carried out in duplicate/triplicate and repeated at least three times.

Row | Molecule | avascular areas in choroid compared to PBS group [1] | increase in retinal density ([2]; 20 ng) | increase in retinal density ([2]; 100 ng) [%] | stimulation of BCE cell growth (mitogenic activity) [3] | BCE cell growth normalized to the vehicle control group ([3]; 3 ng/ml) | BCE cell growth normalized to the vehicle control group ([3]; 10 ng/ml) | BCE cell growth normalized to the vehicle control group ([3]; 30 ng/ml) | BCE cell growth normalized to the vehicle control group ([3]; 100 ng/ml) | BCE cell growth normalized to the vehicle control group ([3]; 300 ng/ml) | BCE cell growth normalized to the vehicle control group ([3]; 1000 ng/ml) | vascular density in the retina [2]
1 | CT-1: cardiotrophin-1, IL-6 family member (protein, UniProt Q16619 1-201, looked up) Cardiotrophin-1: MSRREGSLEDPQTDSSVSLLPHLEAKIRQTHSLAHLLTKYAEQLLQEYVQLQGDPFGLPSFSPPRLPVAGLSAPAPSHAGLPVHERLRLDAAALAALPPLLDAVCRRQAELNPRAPRLLRRLEDAARQARALGAAVEALLAALGAANRGPRAEPPAATASAASATGVFPAKVLGLRVCGLYREWLSRTEGDLGQLLPGGSA | reduced avascular areas | approximately 30% | ~50 |  |  |  |  |  |  |  | 
2 | PRDX-1: recombinant human Peroxiredoxin 1 (protein, UniProt Q06830 2-199, looked up) Peroxiredoxin-1: SSGNAKIGHPAPNFKATAVMPDGQFKDISLSDYKGKYVVFFFYPLDFTFVCPTEIIAFSDRAEEFKKLNCQVIGASVDSHFCHLAWVNTPKKQGGLGPMNIPLVSDPKRTIAQDYGVLKADEGISFRGLFIIDDKGILRQITVNDLPVGRSVDETLRLVQAFQFTDKHGEVCPAGWKPGSDTIKPDVQKSKEYFSKQK |  |  |  | had no effect | ns | ns | ns | ns | ns | ns | 
3 | OSM: oncostatin M, IL-6 family member (protein, UniProt P13725 26-221, looked up) Oncostatin-M: AAIGSCSKEYRVLLGQLQKQTDLMQDTSRLLDPYIRIQGLDVPKLREHCRERPGAFPSEETLRGLGRRGFLQTLNATLGCVLHRLADLEQRLPKAQDLERSGLNIEDLEKLQMARPNILGLRNNIYCMAQLLDNSDTAEPTKAGRGASQPPTPTPASDAFQRKLEGCRFLHGYHRFMHSVGRVFSKWGESPNRSRR | larger than in the PBS group |  |  |  |  |  |  |  |  |  | vascular density decreased
